In US8088892B2, “Inhibitors of proteins from the Rho-GEF family” (Centre National de la Recherche Scientifique (C.N.R.S.), priority 2002, dated 2012):
Entries after “also recorded” stand apart in the source; their conditions may differ. Read-outs that look alike come from different tables or passages of the source.

B1: TRIAPα: aptamer of 154 amino acids: variable region of 42 amino acids inserted into the thioredoxin protein; tested as GST fusion (protein)
chain: MSDKIIHLTDDSFDTDVLKADGAILVDFWAEWCGPAREGADGAICGYNLATLVMLGPSERVFCPLCEPCSSDIYELMGPCKMIAPILDEIADEYQGKLTVAKLNIDQNPGTAPKYGIRGIPTLLLFKNGEVASATKVGALSKGQLKEFLDANLA

Key:
Full length Trio (RhoG) = biological target: T1, Full length Trio (RhoG) (Homo sapiens, UniProt O75962); assay: Yeast Exchange Assay (YEA), full length Trio on RhoG; type: cell-based; design: key to activation of the reporter gene by full length Trio, RhoG: “+ +” represents a slight activation of the reporter gene; “+ + + +” represents a strong activation of the reporter gene; “−” represents no activation of the reporter gene
T1 construct: Full length Trio was introduced into the YEA; expressed in transfected cells; host or cells: yeast strain TAT7
Text: (§1) The wild type GTPase is fused to the LexA DNA binding domain (Matchmaker GAL4 two-hybrid, Clontech Laboratories, Inc., USA) and the effector to the […] (Matchmaker GAL4 two-hybrid, Clontech, Inc., USA). Under these conditions, no binding occurs in the TAT7 strain (De Toledo et al., 2000). Upon addition of a third plasmid expressing the GEF, the GTPase gets activated and binds to its effector, thus leading to the transactivation of the reporter gene LacZ.
Full length Trio was introduced into the YEA and tested for its ability to activate RhoA and RhoG respectively, in the presence or absence of TRIPα. The table below summarizes the effect of TRIPα on Trio as schematized in this Figure.
(§2) In order to better characterise the effect of TRIAPα on the Trio full length RhoGEF activity, the yeast exchange assay (YEA) was used, which is a quick and quantitative test derived from the classical two-hybrid system allowing to measure Rho-GEF activity and specificity (De Toledo et al., 2000). This functional assay is based on the fact that the GTPase binds to its effector only if it is activated by a RhoGEF. Briefly, yeasts are transformed with the GTPase fused to the LexA binding domain (LexA), and its effector to the GAL-4 Activating Domain (GAD), and with the adequate Rho-GEF partner in the yeast strain TAT7 (FIG. 7). […]

TrioGEFD2 [1] = biological target: T2, TrioGEFD2 (Homo sapiens, UniProt O75962); assay: Yeast Exchange Assay (YEA), RhoA activation; type: cell-based; settings: yeast strain TAT7, reporter gene
Text: as §1
TrioGEFD2, a control GEF (GEF720) or an empty vector (−GEF: corresponds to a vector without GEF) were introduced into the YEA system and analysed for their ability to transactivate the reporter gene in absence (left panel) or in the presence (right panel) of TRIPα.
as §2

TrioGEFD2 [2] = biological target: T2, TrioGEFD2; assay: In vitro guanine nucleotide exchange (GEF) assay on RhoA; type: biochemical; design: using recombinant GST-TrioGEFD2 (a.a. 1848-2298), TrioDH2 (a.a. 1848-2096); made in house; key to in vitro GEF assay (inhibition): +++^2 and +^2 represent respectively a full and a partial (see FIG. 3) inhibitory effect; +++^2 and +^2 represent respectively a full and a partial (see FIG. 3) inhibitory effect; −−^2 represents a lack of inhibitory effect; settings: for Inhibition of TrioGEFD2 exchange activity on RhoA in vitro: 20-fold molar excess (8 μM) inhibitor, 0.4 μM GST-GEFD2, 0.3 μM [3H]GDP-RhoA, 15 min; for IC50: 0.4 μM GST-GEFD2, 0.3 μM RhoA, increasing amounts of GST-TRIAPα, read-out: apparent half-inhibitory concentration (inhibition of TrioGEFD2)
Method: For that purpose, aptamers, TrioGEFD2 and RhoA are expressed as GST-fusion proteins. RhoA is loaded with ^3H-GDP, and the release of GDP is followed after addition of GEFD2 in presence or in absence of the selected aptamers (as described in Debant et al., 1996).
A 20-fold molar excess (8 μM) of GST-aptamers TRIAPα, TRIAPβ (another TrioGEFD2 binding aptamer), TRIAPγ (another TrioGEFD2 binding aptamer) or the empty thioredoxine (Trx) were pre-incubated with 0.4 μM GST-GEFD2 (left side of FIG. 2A) or 0.4 μM GST-DH2 (right side of FIG. 2A), as indicated, before adding 0.3 μM of [^3H]GDP loaded GST-RhoA. The exchange activity was monitored by the decrease of [^3H]GDP bound-RhoA after 15 min (see Materials and Methods). The amount of [^3H]GDP bound-RhoA incubated without GEF (first bar on the left) was defined as 100% The values and errors bars were calculated from at least three independent experiments.
0.4 μM GST-GEFD2 were incubated with increasing amounts of GST-TRIAPα (grey bars) or GST (black bars), and the exchange assay was then performed on 0.3 μM RhoA, as described in A.
An in vitro guanine nucleotide exchange (GEF) assay was used to test whether the TrioGEFD2-binding aptamers could inhibit the catalytic activity of TrioGEFD2 towards RhoA. For this purpose, the aptamers TRIAPα, TRIAPβ and TRIAPγ (including the Trx gene) were excised from pEG202 as EcoRI/NotI fragments and cloned into pGEX4T1 EcoRI/NotI. The aptamers were then expressed and purified from bacteria as GST fusion proteins, using standard procedures (Smith and Johnson, 1988). GTPase-GST fusion proteins were prepared, loaded with [^3H]GDP and the guanine nucleotide release assays were performed as described (Debant et al., 1996), using recombinant GST-TrioGEFD2 (a.a. 1848-2298), TrioDH2 (a.a. 1848-2096). For each point, 0.3 μM GTPase was mixed with or without 0.4 μM GEF in presence of non-labeled GTP, and the reaction mix was filtered after 0 min and 15 mm reaction at 25° C. The catalytic activity of TrioGEFD2 was thus measured by the decrease of the GTPase-associated radioactivity. The results are expressed as the ratio “exchange after 15 min over exchange after 0 min” (% bound [^3H]GDP-RhoA). To measure the effect of the aptamers on the exchange activity, a 20-fold molar excess of GST-TRIAPs was pre-incubated with GEFD2 (or GEFD1) for 30 min on ice before the exchange assay was carried out. For each experiment, data were obtained in triplicate.

Row | Molecule | activation of the reporter gene by full length Trio, RhoG (Full length Trio (RhoG); +TRIPα (−TRIPα: + +)) | Inhibition of TrioGEFD2-mediated RhoA activation in the YEA system (TrioGEFD2 [1]) | Inhibition of TrioGEFD2 exchange activity on RhoA in vitro (TrioGEFD2 [2]) | Effect on full-length Trio (TrioGEFD1) activation of RhoG in the YEA system (Full length Trio (RhoG)) | IC50 (TrioGEFD2 [2]; listed as OST-TRIAPα) | IC50 (TrioGEFD2 [2]) | in vitro GEF assay (inhibition) (TrioGEFD2 [2]; RhoGEF TrioDH2PH2)
1 | AREGADGAICGYNLATLVMLGPSERVFCPLCEPCSSDIYELM [TRIPα, 42-amino acid peptide corresponding to the variable region of TRIAPα] | + + + + | inhibits TrioGEFD2-mediated RhoA activation | inhibits TrioGEFD2 activity to a similar level than TRIAPα; also recorded: as potent as TRIAPα | – | – | – | –
2 | B1 | – | blocked specifically TrioGEFD2-mediated activation of RhoA | potent inhibitor of TrioGEFD2 activity; also recorded: inhibits | greatly enhanced TrioGEFD1 activation of RhoG | ~4 µM | 4 µM | +++^2
